Data: patent US20250043019A1 (Janssen / Centocor, published 2025)

T1: human CD79b on the cell surface (human, UniProt P40259 29-229)
T1 sequence: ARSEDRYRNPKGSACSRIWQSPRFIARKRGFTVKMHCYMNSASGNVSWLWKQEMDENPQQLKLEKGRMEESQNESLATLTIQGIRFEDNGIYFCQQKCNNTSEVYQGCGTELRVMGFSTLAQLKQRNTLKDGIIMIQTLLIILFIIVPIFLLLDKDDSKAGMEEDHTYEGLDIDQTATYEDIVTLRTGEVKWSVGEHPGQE

T2: human CD79b and CD20 co-expressed on the surface of B-lymphoma cell lines or primary B cells (human, UniProt P11836 1-297)
T2 sequence 1: T1 sequence
T2 sequence 2: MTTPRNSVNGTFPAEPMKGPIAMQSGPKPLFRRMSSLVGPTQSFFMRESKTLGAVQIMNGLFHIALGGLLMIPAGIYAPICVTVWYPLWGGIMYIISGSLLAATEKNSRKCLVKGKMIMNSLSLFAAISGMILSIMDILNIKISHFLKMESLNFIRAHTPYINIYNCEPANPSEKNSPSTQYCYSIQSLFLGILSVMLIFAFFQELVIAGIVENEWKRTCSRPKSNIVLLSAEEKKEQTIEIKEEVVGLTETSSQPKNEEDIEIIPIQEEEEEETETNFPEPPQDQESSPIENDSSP

B1: 79C3B645 CD79bxCD3 bispecific antibody (bispecific antibody, human IgG1, lambda, L234A L235A)
heavy: QVQLQQSGPGLVKPSQTLSLTCAISGDSVSSNSATWNWIRQSPSRGLEWLGRTYYRSKWYNDYTVSVKSRITINPDTSKNQFSLQLNSVTPEDTAVYYCTRVDIAFDYWGQGTLVTVSSASTKGPSVFPLAPSSKSTSGGTAALGCLVKDYFPEPVTVSWNSGALTSGVHTFPAVLQSSGLYSLSSVVTVPSSSLGTQTYICNVNHKPSNTKVDKKVEPKSCDKTHTCPPCPAPEAAGGPSVFLFPPKPKDTLMISRTPEVTCVVVSVSHEDPEVKFNWYVDGVEVHNAKTKPREEQYNSTYRVVSVLTVLHQDWLNGKEYKCKVSNKALPAPIEKTISKAKGQPREPQVYTLPPSREEMTKNQVSLSCAVKGFYPSDIAVEWESNGQPENNYKTTPPVLDSDGSFFLVSKLTVDKSRWQQGNVFSCSVMHEALHNRFTQKSLSLSPGK
light: QTVVTQPPSVSEAPRQRVTISCSGSSSNIGNHGVNWYQQLPGKAPKLLIYNDDLLPSGVSDRFSGSTSGTSGSLAISGLQSEDEADYYCAAWDDSLNGVVFGGGTKLTVLGQPKAAPSVTLFPPSSEELQANKATLVCLISDFYPGAVTVAWKADSSPVKAGVETTTPSKQSNNKYAASSYLSLTPEQWKSHRSYSCQVTHEGSTVEKTVAPTECS
chain: EIVLTQSPATLSASPGERVTLSCSASSSVSYMNWYQQKPGQAPRRWIYDSSKLASGVPARFSGSGSGRDYTLTISSLEPEDFAVYYCQQWSRNPPTFGGGTKVEIKGGSEGKSSGSGSESKSTGGSQVQLVQSGAEVKKPGSSVKVSCKASGYTFTRSTMHWVRQAPGQGLEWMGYINPSSAYTNYAQKFQGRVTLTADKSTSTAYMELSSLRSEDTAVYYCASPQVHYDYGGFPYWGQGTLVTVSSEPKSSDKTHTCPPCPAPEAAGGPSVFLFPPKPKDTLMISRTPEVTCVVVSVSHEDPEVKFNWYVDGVEVHNAKTKPREEQYNSTYRVVSVLTVLHQDWLNGKEYKCKVSNKALPAPIEKTISKAKGQPREPQVYTLPPSREEMTKNQVSLWCLVKGFYPSDIAVEWESNGQPENNYKTTPPVLDSDGSFFLYSKLTVDKSRWQQGNVFSCSVMHEALHNHYTQKSLSLSPGK
B2: C923B73 CD79bxCD20xCD3 trispecific antibody (other)
heavy: B1 heavy
light: B1 light
chain: EIVLTQSPATLSASPGERVTLSCSASSSVSYMNWYQQKPGQAPRRWIYDSSKLASGVPARFSGSGSGRDYTLTISSLEPEDFAVYYCQQWSRNPPTFGGGTKVEIKGGSEGKSSGSGSESKSTGGSQVQLVQSGAEVKKPGSSVKVSCKASGYTFTRSTMHWVRQAPGQGLEWMGYINPSSAYTNYAQKFQGRVTLTADKSTSTAYMELSSLRSEDTAVYYCASPQVHYDYGGFPYWGQGTLVTVSSEPKSSDKTHTCPPCPAPEAAGGPSVFLFPPKPKDTLMISRTPEVTCVVVSVSHEDPEVKFNWYVDGVEVHNAKTKPREEQYNSTYRVVSVLTVLHQDWLNGKEYKCKVSNKALPAPIEKTISKAKGQPREPQVYTLPPSREEMTKNQVSLWCLVKGFYPSDIAVEWESNGQPENNYKTTPPVLDSDGSFFLYSKLTVDKSRWQQGNVFSCSVMHEALHNHYTQKSLSLSPGKGGSEGKSSGSGSESKSTGGSAIQLTQSPSSLSASVGDRVTITCRASSSVSYIHWFQQKPGKAPKPLIYATSNLASGVPSRFSGSGSGTDFTLTISSLQPEDFATYYCQQWTSNPPTFGQGTKLEIKGGSEGKSSGSGSESKSTGGSQVQLVQSGAEVKKPGSSVKVSCKASGYTFTSYNMHWVRQAPGQGLEWMGAIYPGNGDTSYAQKFQGRVTITADKSTSTAYMELSSLRSEDTAVYYCARSTYYGGDWYFNVWGQGTLVTVSS
B3: 79C3B650 CD79bxCD3 bispecific antibody (bispecific antibody, human IgG1, kappa, L234A L235A)
heavy: QVQLQESGPGLVKPSQTLSLTCTVSGVSISNYYWSWIRQPPGKGLEWIGRISPSGRTNYNPSLKSRVTMSLDASKNQFSLKLSSVTAADTAVYYCARGEYSGTYSYSFDIWGQGTMVTVSSASTKGPSVFPLAPSSKSTSGGTAALGCLVKDYFPEPVTVSWNSGALTSGVHTFPAVLQSSGLYSLSSVVTVPSSSLGTQTYICNVNHKPSNTKVDKKVEPKSCDKTHTCPPCPAPEAAGGPSVFLFPPKPKDTLMISRTPEVTCVVVSVSHEDPEVKFNWYVDGVEVHNAKTKPREEQYNSTYRVVSVLTVLHQDWLNGKEYKCKVSNKALPAPIEKTISKAKGQPREPQVYTLPPSREEMTKNQVSLSCAVKGFYPSDIAVEWESNGQPENNYKTTPPVLDSDGSFFLVSKLTVDKSRWQQGNVFSCSVMHEALHNRFTQKSLSLSPGK
light: DIQMTQSPSSLSASVGDRVTITCRSSQSLFDSDDGNTYLDWFQQKPGQSPKLLIQTLSYRASGVPSRFSGSGSGTDFTLTISSLQPEDFATYYCMQRMEFPLTFGGGTKVEIKRTVAAPSVFIFPPSDEQLKSGTASVVCLLNNFYPREAKVQWKVDNALQSGNSQESVTEQDSKDSTYSLSSTLTLSKADYEKHKVYACEVTHQGLSSPVTKSFNRGEC
chain: B1 chain
B4: 79C3B605 CD79bxCD3 bispecific antibody (bispecific antibody, human IgG1, kappa, L234A L235A)
heavy: QVQLQESGPGLVKPSETLSLTCSVSGASISSFYWSWIRQPADEGLEWIGRISPSGKTNYIPSLKSRIIMSLDASKNQFSLRLNSVTAADTAMYYCARGEYSGTYSYSFDVWGQGTMVTVSSASTKGPSVFPLAPSSKSTSGGTAALGCLVKDYFPEPVTVSWNSGALTSGVHTFPAVLQSSGLYSLSSVVTVPSSSLGTQTYICNVNHKPSNTKVDKKVEPKSCDKTHTCPPCPAPEAAGGPSVFLFPPKPKDTLMISRTPEVTCVVVSVSHEDPEVKFNWYVDGVEVHNAKTKPREEQYNSTYRVVSVLTVLHQDWLNGKEYKCKVSNKALPAPIEKTISKAKGQPREPQVYTLPPSREEMTKNQVSLSCAVKGFYPSDIAVEWESNGQPENNYKTTPPVLDSDGSFFLVSKLTVDKSRWQQGNVFSCSVMHEALHNRFTQKSLSLSPGK
light: DIVMTQSPLSLSVTPGEPASISCRSSESLLDSEDGNTYLDWFLQKPGQSPQLLIYTLSYRASGVPDRFSGSGSDTDFTLHISSLEAEDVGLYYCMQRMEFPLTFGQGTKVEIKRTVAAPSVFIFPPSDEQLKSGTASVVCLLNNFYPREAKVQWKVDNALQSGNSQESVTEQDSKDSTYSLSSTLTLSKADYEKHKVYACEVTHQGLSSPVTKSFNRGEC
chain: B1 chain
B5: C923B95 CD79bxCD20xCD3 trispecific antibody (other)
heavy: B3 heavy
light: B3 light
chain: B2 chain
B6: C923B36 CD79bxCD20xCD3 trispecific antibody (other)
heavy: B4 heavy
light: B4 light
chain: B2 chain

Legend:
Test in all cases: cell-based or functional assay
[1] = target: T1, human CD79b on the cell surface
[2] = target: T1, human CD79b on the cell surface; remark: listed apart in the source
[3] = target: T2, human CD79b and CD20 co-expressed on …
[4] = target: T2, human CD79b and CD20 co-expressed on …; remark: listed apart in the source

Binder	IC50, T-cell killing of OCI-Ly10 (Incucyte) [1]	IC50, T-cell killing of HBL-1 (Incucyte) [2]	IC50, T-cell killing of OCI-Ly10 (Incucyte) [3]	IC50, T-cell killing of HBL-1 (Incucyte) [4]
B1	18 nM	7.19 nM	–	–
B2	–	–	132 nM	6.8 nM
B3	7 nM	43.3 nM	–	–
B4	54.3 nM	29.5 nM	–	–
B5	–	–	14.8 nM	4.89 nM
B6	–	–	42 nM	31 nM
